Measurements as given in PMC12434308 (Nature chemical biology, 2021).
Where “and” joins values, the source holds several entries; their conditions need not be identical. Equal entries are not always repeated.

Biological target: SARS-CoV-2 S protein (SARS-CoV-2) (UniProt P0DTC2)
Assay: native MS

**Q.** Which stoichiometry N does the source give for “SARS-CoV-2 S protein (from UniProt P0DTC2) (natural protein)” here?
**A.** 2 and 6
